Measured values taken from publication PMC12041195.

Experiments:
Experiment in all cases: BLI
[1] = target: recombinant HA protein of A/Hong Kong/45/2019 (H3N2) (influenza A virus A/Hong Kong/45/2019 (H3N2))
[2] = target: recombinant HA protein of A/Beijing/262/1995 (H1N1) (influenza A virus A/Beijing/262/1995 (H1N1))
[3] = target: recombinant HA protein of A/Aichi/2/1968 (H3N2) (influenza A virus A/Aichi/2/1968 (H3N2)) (UniProt P03437)
[4] = target: recombinant HA protein of A/New Caledonia/20/1999 (H1N1) (influenza A virus A/New Caledonia/20/1999 (H1N1))

IgG-F045-092 (antibody) gave a Kd [1] of 12500 pM.

“IgM-F045-092 (from UniProt P01591 23-159) (antibody)” gave a Kd [2] of less than 1 pM, a Kd [3] of less than 1 pM and a Kd [1] of less than 1 pM. It also gave a Kd [4] of less than 1 pM.
